Results on five compounds are retold here after paper PMC6550519, “Regulatory Mechanism of Nicotine Degradation in Pseudomonas putida” (mBio, 2019).

Data set [1] concerns NicR2 (Pseudomonas putida S16). As to the kind of experiment: ITC. Conditions: EMSA: 10 mM Tris-HCl, 100 mM NaCl, 27 nM DNA, 180 nM NicR2, 30 min room temperature, 9% native PAGE; ITC: PBS, 64 uM NicR2 in cell, 100 uM DNA titrant ….
In data set [2] the target is NicR2. Nature of the data set: ITC, […] HSP titrated into […] purified free NicR2; supported by EMSA. The format is binding, Pseudomonas putida. A general note: Isothermal titration calorimetry measures the heat released or taken up as one component is titrated into another.

“CACTAATTATACCGTCGTACATATAATAAA (double strand) [wild type 30 bp (Pspm inverted repeat)]” showed a Kd in data set [1] of 0.18 µM. In other words, the sub-micromolar range.
On the same count and under the same terms, with “CACTAATTATACCGTCGTACATAGAATAAA (double strand) [R-m3 30 bp]” the figure was 1.8 µM; with “CACTAATTATACCGTCGTACATCTAATAAA (double strand) [R-m4 30 bp]”, 0.57 µM.
“CACTAATTATACCGTCGTACATATCCTAAA (double strand) [R-m12 30 bp]” gave a Kd in data set [1] of 0.14 µM.
The compound `O=C(O)CCC(=O)c1ccc(O)nc1` [HSP, 6-hydroxy-3-succinoyl-pyridine] registered a Kd in data set [2] of 4.95 ± 0.48 µM.

What is called Kd is the equilibrium constant for the complex coming apart. Higher therefore signals lower affinity.
